Laboratory results: patent publication US20060210567A1 (AstraZeneca / MedImmune, published 2006)

target: T1, human PD-1 fusion protein (human, UniProt Q15116 25-170); experiment: IgG titrated; inhibition of biotinylated human PD-L1 fusion binding to plate-bound human PD-1 fusion
T1 construct: also called Soluble PD-1 fusion protein; human PD-1/IgG chimera; not shown: fusion partner (IgG part of the chimera)
T1 sequence (Q15116 other isoform, or with tags, fused parts or gaps): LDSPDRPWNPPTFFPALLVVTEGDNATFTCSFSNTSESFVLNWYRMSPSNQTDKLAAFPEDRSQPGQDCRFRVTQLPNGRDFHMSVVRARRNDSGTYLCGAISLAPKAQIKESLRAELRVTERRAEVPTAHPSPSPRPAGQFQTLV

Row | Binder | IC50
1 | PD1-17 IgG (antibody, V domains shown, also called anti-PD-1 antibody PD1-17) VH: QVQLQESGPGVVKPSGTLSLTCAISGGSIGSGGSIRSTRWWSWVRQSPGKGLEWIGEIYHSGSTNYNPSLKSRVTISLDKSRNHFSLRLNSVTAADTAVYYCARQDYGDSGDWYFDLWGKGTMVTVSS VL: NFMLTQPHSVSESPGKTVTISCTRSSGSIASNSVQWYQQRPGSSPTTVIYEDNQRPSGVPDRFSGSIDSSSNSASLTVSGLKTEDEADYYCQSSDSSAVVFGSGTKLTVL | 2.5 nM
2 | PD1-28 IgG (antibody, V domains shown) VH: EVQLVQSGAEVKKPGASVKVSCKASGYRFTSYGISWVRQAPGQGLEWMGWISAYNGNTNYAQKLQGRVTMTTDTSTNTAYMELRSLRSDDTAVYYCARDADYSSGSGYWGQGTLVTVSS VL: SYELTQPPSVSVSPGQTARITCSGDALPKQYAYWYQQKPGQAPVMVIYKDTERPSGIPERFSGSSSGTKVTLTISGVQAEDEADYYCQSADNSITYRVFGGGTKVTVL | 1.4 nM
3 | PD1-33 IgG (antibody, V domains shown) VH: QVQLVQSGAEVKKPGASVRVSCKASGYTLTSYYIHWVRQAPGQGLEWMGIINPRGATISYAQKFQGRVTMTRDTSTSTVYMELRNLKSEDTALYYCATAGIYGFDFDYWGRGTLVTVSS VL: QSALTQPASVSGSPGQSITISCTGTSNDVGGYNYVSWYQHHPGKAPKLIIYDVTNRPSGVSDRFSGSKSGNTASLTISGLLAEDEGDYYCSSYTIVTNFEVLFGGGTKLTV | 1.8 nM
4 | PD1-35 IgG (antibody, V domains shown, also called PD-35) VH: QVQLQESGPGLVKPSQTLSLTCTVSGGSISSGAYYWSWIRQHPGKGLEWIGYIYYNGNTYYNPSLRSLVTISVDASKNQFSLKLSSVTAADTAVYYCARASDYVWGGYRYMDAFDIWGRGTLITVSS VL: not shown | 2.3 nM

target: T1, human PD-1 fusion protein; experiment: purified scFv titrated; inhibition of biotinylated human PD-L1 fusion binding to plate-bound human PD-1 fusion
Protocol: ScFv production was induced by addition of 1 mM IPTG to exponentially growing cultures and incubation overnight at 30° C. Crude scFv-containing periplasmic extracts were obtained by subjecting the bacterial pellets from the overnight induction to osmotic shock. Pellets were resuspended in 20% (w/v) sucrose, 50 mM Tris-HCl, pH 7.5, 1 mM EDTA and cooled on ice for 30 minutes. Cellular debris was removed by centrifugation, and the scFv was purified by chromatography and buffer-exchanged into PBS. Purified scFv's (PD1-17, PD1-28, PD1-33, and PD1-35) were tested for the ability to inhibit the binding of biotinylated human PD-L1 fusion protein to human PD-1 fusion protein immobilized on plastic in a 96 well microtiter plate assay. Binding of biotinylated PD-L1 fusion protein was detected with AMDEX-alkaline phosphatase, and the signal generated was measured by reading the absorbance at 405 nm using a microtiter plate reader. Data was expressed as a percentage of the total binding and a titration of scFv concentrations was tested to establish clone potency as calculated IC₅₀ values.

Row | Binder | IC50
5 | PD1-17 scFv (scFv, V domains shown, not shown: scFv linker and domain order) VH: QVQLQESGPGVVKPSGTLSLTCAISGGSIGSGGSIRSTRWWSWVRQSPGKGLEWIGEIYHSGSTNYNPSLKSRVTISLDKSRNHFSLRLNSVTAADTAVYYCARQDYGDSGDWYFDLWGKGTMVTVSS VL: NFMLTQPHSVSESPGKTVTISCTRSSGSIASNSVQWYQQRPGSSPTTVIYEDNQRPSGVPDRFSGSIDSSSNSASLTVSGLKTEDEADYYCQSSDSSAVVFGSGTKLTVL | 726 nM
6 | PD1-28 scFv (scFv, V domains shown, not shown: scFv linker and domain order) VH: EVQLVQSGAEVKKPGASVKVSCKASGYRFTSYGISWVRQAPGQGLEWMGWISAYNGNTNYAQKLQGRVTMTTDTSTNTAYMELRSLRSDDTAVYYCARDADYSSGSGYWGQGTLVTVSS VL: SYELTQPPSVSVSPGQTARITCSGDALPKQYAYWYQQKPGQAPVMVIYKDTERPSGIPERFSGSSSGTKVTLTISGVQAEDEADYYCQSADNSITYRVFGGGTKVTVL | 560 nM
